The source of these data is patent publication US20240084003A1 (SIMCERE ZAIMING PHARMACEUTICAL, published 2024).

Changes are numbered by the printed parent chain.

To fix the notation:
T1: human CD22, endogenous on Raji cells (human, UniProt P20273 20-847)
T1 construct: whole, on cells; Endogenous protein of the Raji cell line
T1 sequence (looked up): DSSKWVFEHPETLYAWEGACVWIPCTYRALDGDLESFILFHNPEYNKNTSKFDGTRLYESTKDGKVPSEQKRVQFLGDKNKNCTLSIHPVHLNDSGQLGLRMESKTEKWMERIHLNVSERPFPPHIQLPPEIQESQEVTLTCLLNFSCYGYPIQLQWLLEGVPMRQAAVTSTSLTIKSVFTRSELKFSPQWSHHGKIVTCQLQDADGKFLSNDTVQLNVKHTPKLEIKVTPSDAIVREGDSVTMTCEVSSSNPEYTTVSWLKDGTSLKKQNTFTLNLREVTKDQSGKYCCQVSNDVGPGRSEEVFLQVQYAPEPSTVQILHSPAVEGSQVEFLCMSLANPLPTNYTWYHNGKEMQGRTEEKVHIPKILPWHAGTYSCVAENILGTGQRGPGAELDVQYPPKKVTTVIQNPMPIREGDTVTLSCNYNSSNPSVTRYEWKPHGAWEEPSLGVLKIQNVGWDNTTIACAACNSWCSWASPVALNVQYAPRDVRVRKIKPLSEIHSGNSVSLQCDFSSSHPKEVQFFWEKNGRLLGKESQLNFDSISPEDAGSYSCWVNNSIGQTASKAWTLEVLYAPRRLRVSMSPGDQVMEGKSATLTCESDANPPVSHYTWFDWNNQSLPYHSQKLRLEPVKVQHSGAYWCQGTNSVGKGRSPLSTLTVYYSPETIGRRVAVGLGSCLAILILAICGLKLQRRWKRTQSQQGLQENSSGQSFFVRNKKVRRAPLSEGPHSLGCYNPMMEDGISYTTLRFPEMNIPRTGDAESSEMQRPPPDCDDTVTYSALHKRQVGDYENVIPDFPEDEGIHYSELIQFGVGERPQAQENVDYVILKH

T2: human CD22, full length, on CHO-K1-human CD22 2C4 cells (human, UniProt P20273 20-847)
T2 construct: Full-length human CD22 (NCBI NP_001762.2) stably transfected into CHO-K1
T2 sequence: T1 sequence (looked up)

T3: murine CD22 protein (ACROBiosystems, SI2-M52Ha) (murine, UniProt P35329 22-708)
T3 construct: extracellular domain; also called murine CD22-ECD; murine CD22-ECD-His
T3 sequence (looked up): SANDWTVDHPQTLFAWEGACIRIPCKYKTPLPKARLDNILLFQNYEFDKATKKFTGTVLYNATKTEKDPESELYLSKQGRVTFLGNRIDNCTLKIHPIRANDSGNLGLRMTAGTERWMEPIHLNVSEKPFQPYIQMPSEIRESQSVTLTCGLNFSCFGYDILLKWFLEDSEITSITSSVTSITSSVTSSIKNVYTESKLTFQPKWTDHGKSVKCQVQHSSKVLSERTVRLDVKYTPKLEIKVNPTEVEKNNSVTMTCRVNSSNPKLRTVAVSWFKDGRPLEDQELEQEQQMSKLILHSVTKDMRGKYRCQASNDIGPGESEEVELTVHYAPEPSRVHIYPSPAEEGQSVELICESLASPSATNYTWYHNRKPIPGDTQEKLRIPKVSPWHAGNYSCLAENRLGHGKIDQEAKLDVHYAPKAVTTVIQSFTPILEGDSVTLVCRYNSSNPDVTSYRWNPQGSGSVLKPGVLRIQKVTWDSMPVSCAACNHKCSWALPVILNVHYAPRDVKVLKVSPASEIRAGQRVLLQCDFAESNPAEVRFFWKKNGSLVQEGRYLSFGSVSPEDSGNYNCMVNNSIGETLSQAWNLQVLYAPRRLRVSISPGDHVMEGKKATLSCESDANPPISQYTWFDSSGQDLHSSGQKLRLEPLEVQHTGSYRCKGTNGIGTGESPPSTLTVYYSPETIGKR

B1: F2.121.9 human-murine chimeric antibody (antibody, human IgG1, lambda, V domains shown)
VH: EVQLVESGGGLVKPGGSLKLSCAASGFTFSDYVMSWIRQTPEKRLEWVATISDAGSYTFYPDNLKGRFTISRDNAKNNLYLQMNHLTSEDTAFYYCAIIYFGNYGGYWGQGTLVTVSV
VL: QAVVTQESALTTSPGGTVVLTCRSNTGAVTTSNYANWVQEKPDHLFTGLIGGTSNRAPGVPVRFSGSLIGDKAALTITGAQTEDDAMYFCALWYSTHWVFGGGTKLTVLG
notes: Chimeric, human IgG1 / lambda
B2: F2.70.2 human-murine chimeric antibody (antibody, human IgG1, lambda, V domains shown)
VH: EVQLVESGGGLVKPGGSLKLSCAASGFTFSDYGMNWFRQAPEKGLEWVAYISRGSHTIYYADTVKGRFTISRDNAKNTLFLQMTSLRSNDTAMYYCVRMAGYYAMDYWGQGTSVTVSS
VL: QLVLTQSSSASFSLGASAKLTCTLSSQHSSYIIEWYQQQPLKPPKYVMELKKDGSHSTGDGIPDRFSGSSSGADRYLSISNIQPEDEAIYICGVGDTIKEQFVYVFGGGTKVTVLG
notes: Chimeric, human IgG1 / lambda
B3: F2.180.16 human-murine chimeric antibody (antibody, human IgG1, lambda, V domains shown)
VH: EVKLVESGGGLVLPGGSLKISCAASGFTFSDYYMYWIRQTPDKRLEWVAYISNTGYSTFYPDSVKGRFTVSRDNAKNTLYLQMSRLQSEDTAMYYCARHGILYAMDYWGQGTSVTVSS
VL: B2 VL with L2P, H28Y, S30T, I32T, E34G, K52H, H56R, S57H, I89T, V103M
notes: Chimeric, human IgG1 / lambda
B4: F2.173.9 human-murine chimeric antibody (antibody, human IgG1, lambda, V domains shown)
VH: EVQLVESGGDLVKPGESLKLSCEASGFTFSNYAMSWVRQTPDRRLEWVATISSIGSFTYYSDSVKGRFTISRDNVKSTLHLQMNNLKSGDTAIYFCARLGVYFDSWGQGTTLTVSS
VL: B2 VL with S30T, I32T, L41H, Y46F, L50I, S57Y, A88T, G95S, T97M, E100D
notes: Chimeric, human IgG1 / lambda
B5: F2.104.10 human-murine chimeric antibody (antibody, human IgG1, lambda, V domains shown)
VH: B2 VH with L11F, K76E, V114L
VL: B2 VL with L50V, P84S
notes: Chimeric, human IgG1 / lambda
B6: F2.151.13 human-murine chimeric antibody (antibody, human IgG1, lambda, V domains shown)
VH: QVHLQQPGTELMKPGASVKLSCKATGYTFRDYWLEWVKQRPGHGLEWIGEILPGSGNAYYNEKFKGKATFTADTSSNTAYMQLSSLTTEDSAIYYCARVYSNWYFDAWGKGTTVTVSS
VL: QAVVTQESALTTSPGETVTLTCRSSTGAVTTSNYANWVQEKPDHLFTGLIGGTNNQAPGVPARFSGSLIGDKAALTISGAQTEDEAIYFCALWFSNHWVFGGGTKLTVLG
notes: Chimeric, human IgG1 / lambda

The first assay has as its target T1, human CD22, endogenous on Raji cells. Kind of assay: FACS, Raji cells. The text has this:
(§1) The required cells were scale-up cultured in a T-75 cell culture flask to the logarithmic growth phase. For the adherent cell CHO-K1, the medium was aspirated, the cells were washed 2 times with PBS buffer, and then digested with trypsin. After the digestion was terminated, the cells were washed 2 times with PBS buffer. For suspension cell Raji, the medium supernatant was directly centrifuged and discarded, and the cell pellet was washed 2 times with PBS. After counting the cells in the previous step, the cell pellet was resuspended with [PBS+2% (w/w) BSA] blocking solution to 2×10⁶ cells/ml, and added to a 96-well FACS reaction plate at 50 μl/well, and then the chimeric antibody test sample was added at 50 μl/well, and incubated on ice for 2 hours. The mixture was centrifuged and washed 3 times with PBS buffer, Alexa Flour 488-labeled secondary antibody (purchased from Invitrogen, catalog number: A-11013) was added at 50 μl/well, and incubated on ice for 1 hour. The obtained mixture was centrifuged and washed 5 times with PBS, and FACS (FACS Canto™, purchased from BD Company) was used for detection and result analysis. Data analysis was performed by software (CellQuest) to obtain the mean fluorescence density (MFI)of the cells. And then software (GraphPad Prism8) was used for analysis, data fitting, and EC50 value calculation. […] The same method was used to detect the binding of the chimeric antibodies to endogenous CD22-negative cell MoLT4 cells (purchased from ATCC, CRL-1582) and CHO-K1 cells.
Regarding B1, the EC50 is 0.86 nM and the “Maximum mean fluorescence intensity” value stood at 18900 MFI.

Consider B2, for which a half-maximal response (EC50) required 0.35 nM and the “Maximum mean fluorescence intensity” value was found to be 16600 MFI.

B3: the EC50 is 0.88 nM and the “Maximum mean fluorescence intensity” value came to 15700 MFI.

Regarding B4, the 50% effective concentration (EC50) was 0.84 nM and the “Maximum mean fluorescence intensity” value worked out at 18900 MFI.

For the molecule B5, the EC50 came to 0.4 nM and the “Maximum mean fluorescence intensity” value worked out at 16300 MFI.

Take B6: the EC50 amounted to 1.26 nM and the “Maximum mean fluorescence intensity” value came to 18800 MFI.

A further assay addresses T2, human CD22, full length, on …. Kind of assay: FACS, CHO-K1-human CD22 2C4 cells.
Text: as §1
With B1, a half-maximal response (EC50) required 1.09 nM and the “Maximum mean fluorescence intensity” value amounted to 39700 MFI.

Take B2: the EC50 worked out at 0.76 nM and the “Maximum mean fluorescence intensity” value is 39000 MFI.

As to B3, the EC50 came to 1.63 nM and the “Maximum mean fluorescence intensity” value was found to be 34400 MFI.

On to B4, for which a half-maximal response (EC50) required 1.23 nM and the “Maximum mean fluorescence intensity” value came to 40300 MFI.

For B5, the concentration for a half-maximal effect (EC50) was 0.88 nM and the “Maximum mean fluorescence intensity” value was found to be 40600 MFI.

Regarding B6, the midpoint of the response, the EC50, lay at 3.28 nM and the “Maximum mean fluorescence intensity” value is 37000 MFI.

In the next assay the target is T3, murine CD22 protein (ACROBiosystems, …). Kind of assay: ELISA, coated murine CD22, 10 nM Ab. Put shortly:
(§2)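 Plates were coated overnight at 4° C with 2 μg/mL CD22 protein in PBS and blocked with PBS + 2% BSA. Chimeric antibodies were incubated for 2 h at 37° C, then HRP-labelled secondary for 2 h at 37° C. Bound antibody was read by TMB colour development (30 min, RT) stopped with 1.0 N HCl.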
For B1, the OD450 came out at 0.06 OD450.

The molecule B2 registered an OD450 of 0.07 OD450.

Turning to B3, the OD450 is 0.06 OD450.

In turn, B4 registered an OD450 of 0.06 OD450.

B5 yielded an OD450 of 0.07 OD450.

The molecule B6 gave an OD450 of 0.08 OD450.

Another assay shares this target. Kind of assay: ELISA, coated murine CD22, 0.1 nM Ab. Put shortly: as §2
B1: the OD450 stood at 0.05 OD450.

For the molecule B2, the OD450 was determined as 0.06 OD450.

B3 displayed an OD450 of 0.05 OD450.

Consider B4, for which the OD450 turned out to be 0.05 OD450.

Take B5: the OD450 was 0.06 OD450.

Molecule B6 displayed an OD450 of 0.07 OD450.

The target is the same in a further assay. Kind of assay: ELISA, coated murine CD22, 100 nM Ab. Put shortly: as §2
B1: the OD450 came to 0.06 OD450.

Molecule B2 returned an OD450 of 0.1 OD450.

Molecule B3 yielded an OD450 of 0.05 OD450.

As for B4, the OD450 amounted to 0.09 OD450.

In turn, B5 came in with an OD450 of 0.07 OD450.

Regarding B6, the OD450 turned out to be 0.09 OD450.

Another assay shares this target. Kind of assay: ELISA, coated murine CD22, 0.01 nM Ab. The method, boiled down:
as §2
In turn, B1 gave an OD450 of 0.05 OD450.

Molecule B2 gave an OD450 of 0.06 OD450.

B3 displayed an OD450 of 0.05 OD450.

As for B4, the OD450 turned out to be 0.05 OD450.

Molecule B5 returned an OD450 of 0.07 OD450.

In the case of B6, the OD450 is 0.07 OD450.

For a further assay the target is unchanged. Kind of assay: ELISA, coated murine CD22, 0.001 nM Ab. Put shortly: as §2
Molecule B1 displayed an OD450 of 0.06 OD450.

In turn, B2 returned an OD450 of 0.06 OD450.

Molecule B3 showed an OD450 of 0.05 OD450.

B4 returned an OD450 of 0.05 OD450.

Molecule B5 came in with an OD450 of 0.06 OD450.

With B6, the OD450 was 0.07 OD450.

For the next assay the target is unchanged. Kind of assay: ELISA, coated murine CD22, 0.0001 nM Ab. Put shortly: as §2
On to B1, for which the OD450 was determined as 0.06 OD450.

In the case of B2, the OD450 amounted to 0.06 OD450.

B3 had an OD450 of 0.07 OD450.

Turning to B4, the OD450 came to 0.05 OD450.

B5: the OD450 worked out at 0.06 OD450.

For the molecule B6, the OD450 came to 0.07 OD450.

For the next assay the target is unchanged. Kind of assay: ELISA, coated murine CD22, 0.00001 nM Ab. Put shortly: as §2
Take B1: the OD450 is 0.06 OD450.

In turn, B2 registered an OD450 of 0.06 OD450.

B3: the OD450 stood at 0.06 OD450.

Molecule B4 returned an OD450 of 0.06 OD450.

Molecule B5 displayed an OD450 of 0.05 OD450.

In the case of B6, the OD450 was found to be 0.07 OD450.
